Data from publication PMC2138052.

Molecular target: Rabbit muscle F-actin (rabbit) (UniProt P68135)
Experiment: co-sedimentation

“Recombinant human cofilin (from UniProt P23528 1-166) (natural protein)” was tested, and the stoichiometry N (cofilin/actin) was 1.16.
